{"source": "the supplement of paper PMC10219994", "parents": {"B1": {"name": "library; a variant is named by its letters at N, in order (parent)", "chain": "GAGACCGCAACTGAAAAGTTGTGGNNNNNATAGTGAGTCGCTGCCTGCAAAGACACAACT"}}, "note": "± gives the standard deviation of the averaged measurements."}
{"variants_of": "B1", "assay": "ligation selection enrichment (abundance after / before one-round selection) (fold); higher = more template-directed ligation activity", "conditions": "with T7Psub CACGGAUGCUAAUACGACUCACUAUA; MgCl2 25 mM; 42 °C; 4 h; pH 8.5", "method": "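Lib-N5 ligase ribozyme library: five randomized core nucleotides (including the GGA motif of N8-1) within the fixed N8-1 ribozyme flanks, transcribed by T7 RNA polymerase with a 5'-triphosphate. The library (0.75 uM) was reacted with substrate T7Psub (6 uM) in 50 mM EPPS pH 8.5 with 25 mM MgCl2 at 42 C for 4 h. Ligated products were PAGE-purified, reverse transcribed and MiSeq sequenced; enrichment = abundance after selection / abundance before selection, with two independent replicates. The full transcript is built from the printed template flanks.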"}
{"variant": "GAGACCGCAACTGAAAAGTTGTGGTACCGATAGTGAGTCGCTGCCTGCAAAGACACAACT", "note": "[TACCG]", "ligation selection enrichment": "0.574 ± 0.048"}
{"variant": "GAGACCGCAACTGAAAAGTTGTGGAACCGATAGTGAGTCGCTGCCTGCAAAGACACAACT", "note": "[AACCG]", "ligation selection enrichment": "0.526 ± 0.039"}
{"variant": "GAGACCGCAACTGAAAAGTTGTGGCACCGATAGTGAGTCGCTGCCTGCAAAGACACAACT", "note": "[CACCG]", "ligation selection enrichment": "0.217 ± 0.047"}
{"variant": "GAGACCGCAACTGAAAAGTTGTGGAACCTATAGTGAGTCGCTGCCTGCAAAGACACAACT", "note": "[AACCT]", "ligation selection enrichment": "0.845 ± 0.39"}
{"variant": "GAGACCGCAACTGAAAAGTTGTGGTACCTATAGTGAGTCGCTGCCTGCAAAGACACAACT", "note": "[TACCT]", "ligation selection enrichment": "0.599 ± 0.22"}
{"variant": "GAGACCGCAACTGAAAAGTTGTGGGACCTATAGTGAGTCGCTGCCTGCAAAGACACAACT", "note": "[GACCT]", "ligation selection enrichment": "0.584 ± 0.26"}
{"variant": "GAGACCGCAACTGAAAAGTTGTGGCACCTATAGTGAGTCGCTGCCTGCAAAGACACAACT", "note": "[CACCT]", "ligation selection enrichment": "0.334 ± 0.14"}
{"variant": "GAGACCGCAACTGAAAAGTTGTGGAACGAATAGTGAGTCGCTGCCTGCAAAGACACAACT", "note": "[AACGA]", "ligation selection enrichment": "0.673 ± 0.067"}
{"variant": "GAGACCGCAACTGAAAAGTTGTGGCACGAATAGTGAGTCGCTGCCTGCAAAGACACAACT", "note": "[CACGA]", "ligation selection enrichment": "0.471 ± 0.005"}
{"variant": "GAGACCGCAACTGAAAAGTTGTGGTACGAATAGTGAGTCGCTGCCTGCAAAGACACAACT", "note": "[TACGA]", "ligation selection enrichment": "1.32 ± 0.13"}
{"variant": "GAGACCGCAACTGAAAAGTTGTGGGACGAATAGTGAGTCGCTGCCTGCAAAGACACAACT", "note": "[GACGA]", "ligation selection enrichment": "1.29 ± 0.2"}
{"variant": "GAGACCGCAACTGAAAAGTTGTGGGACGCATAGTGAGTCGCTGCCTGCAAAGACACAACT", "note": "[GACGC]", "ligation selection enrichment": "0.264 ± 0.024"}
{"variant": "GAGACCGCAACTGAAAAGTTGTGGAACGCATAGTGAGTCGCTGCCTGCAAAGACACAACT", "note": "[AACGC]", "ligation selection enrichment": "0.197 ± 0.017"}
{"variant": "GAGACCGCAACTGAAAAGTTGTGGTACGCATAGTGAGTCGCTGCCTGCAAAGACACAACT", "note": "[TACGC]", "ligation selection enrichment": "0.1908 ± 0.0012"}
{"variant": "GAGACCGCAACTGAAAAGTTGTGGCACGCATAGTGAGTCGCTGCCTGCAAAGACACAACT", "note": "[CACGC]", "ligation selection enrichment": "0.163 ± 0.014"}
{"variant": "GAGACCGCAACTGAAAAGTTGTGGGACGGATAGTGAGTCGCTGCCTGCAAAGACACAACT", "note": "[GACGG]", "ligation selection enrichment": "0.409 ± 0.066"}
{"variant": "GAGACCGCAACTGAAAAGTTGTGGTACGGATAGTGAGTCGCTGCCTGCAAAGACACAACT", "note": "[TACGG]", "ligation selection enrichment": "0.379 ± 0.026"}
{"variant": "GAGACCGCAACTGAAAAGTTGTGGAACGGATAGTGAGTCGCTGCCTGCAAAGACACAACT", "note": "[AACGG]", "ligation selection enrichment": "0.32 ± 0.045"}
{"variant": "GAGACCGCAACTGAAAAGTTGTGGCACGGATAGTGAGTCGCTGCCTGCAAAGACACAACT", "note": "[CACGG]", "ligation selection enrichment": "0.242 ± 0.057"}
{"variant": "GAGACCGCAACTGAAAAGTTGTGGTACGTATAGTGAGTCGCTGCCTGCAAAGACACAACT", "note": "[TACGT]", "ligation selection enrichment": "0.169 ± 0.044"}
{"variant": "GAGACCGCAACTGAAAAGTTGTGGAACGTATAGTGAGTCGCTGCCTGCAAAGACACAACT", "note": "[AACGT]", "ligation selection enrichment": "0.167 ± 0.013"}
{"variant": "GAGACCGCAACTGAAAAGTTGTGGCACGTATAGTGAGTCGCTGCCTGCAAAGACACAACT", "note": "[CACGT]", "ligation selection enrichment": "0.156 ± 0.046"}
{"variant": "GAGACCGCAACTGAAAAGTTGTGGGACGTATAGTGAGTCGCTGCCTGCAAAGACACAACT", "note": "[GACGT]", "ligation selection enrichment": "0.154 ± 0.063"}
{"variant": "GAGACCGCAACTGAAAAGTTGTGGTACTAATAGTGAGTCGCTGCCTGCAAAGACACAACT", "note": "[TACTA]", "ligation selection enrichment": "0.168 ± 0.08"}
{"variant": "GAGACCGCAACTGAAAAGTTGTGGAACTAATAGTGAGTCGCTGCCTGCAAAGACACAACT", "note": "[AACTA]", "ligation selection enrichment": "0.165 ± 0.013"}
{"variant": "GAGACCGCAACTGAAAAGTTGTGGGACTAATAGTGAGTCGCTGCCTGCAAAGACACAACT", "note": "[GACTA]", "ligation selection enrichment": "0.161 ± 0.026"}
{"variant": "GAGACCGCAACTGAAAAGTTGTGGCACTAATAGTGAGTCGCTGCCTGCAAAGACACAACT", "note": "[CACTA]", "ligation selection enrichment": "0.157 ± 0.041"}
{"variant": "GAGACCGCAACTGAAAAGTTGTGGAACTCATAGTGAGTCGCTGCCTGCAAAGACACAACT", "note": "[AACTC]", "ligation selection enrichment": "0.0963 ± 0.052"}
{"variant": "GAGACCGCAACTGAAAAGTTGTGGCACTCATAGTGAGTCGCTGCCTGCAAAGACACAACT", "note": "[CACTC]", "ligation selection enrichment": "0.0626 ± 0.02"}
{"variant": "GAGACCGCAACTGAAAAGTTGTGGGACTCATAGTGAGTCGCTGCCTGCAAAGACACAACT", "note": "[GACTC]", "ligation selection enrichment": "0.111 ± 0.037"}
{"variant": "GAGACCGCAACTGAAAAGTTGTGGTACTCATAGTGAGTCGCTGCCTGCAAAGACACAACT", "note": "[TACTC]", "ligation selection enrichment": "0.103 ± 0.036"}
{"variant": "GAGACCGCAACTGAAAAGTTGTGGGACTGATAGTGAGTCGCTGCCTGCAAAGACACAACT", "note": "[GACTG]", "ligation selection enrichment": "0.762 ± 0.055"}
{"variant": "GAGACCGCAACTGAAAAGTTGTGGTACTGATAGTGAGTCGCTGCCTGCAAAGACACAACT", "note": "[TACTG]", "ligation selection enrichment": "0.641 ± 0.095"}
{"variant": "GAGACCGCAACTGAAAAGTTGTGGAACTGATAGTGAGTCGCTGCCTGCAAAGACACAACT", "note": "[AACTG]", "ligation selection enrichment": "0.506 ± 0.068"}
{"variant": "GAGACCGCAACTGAAAAGTTGTGGCACTGATAGTGAGTCGCTGCCTGCAAAGACACAACT", "note": "[CACTG]", "ligation selection enrichment": "0.286 ± 0.0061"}
{"variant": "GAGACCGCAACTGAAAAGTTGTGGTACTTATAGTGAGTCGCTGCCTGCAAAGACACAACT", "note": "[TACTT]", "ligation selection enrichment": "0.0933 ± 0.018"}
{"variant": "GAGACCGCAACTGAAAAGTTGTGGAACTTATAGTGAGTCGCTGCCTGCAAAGACACAACT", "note": "[AACTT]", "ligation selection enrichment": "0.165 ± 0.066"}
{"variant": "GAGACCGCAACTGAAAAGTTGTGGGACTTATAGTGAGTCGCTGCCTGCAAAGACACAACT", "note": "[GACTT]", "ligation selection enrichment": "0.157 ± 0.075"}
{"variant": "GAGACCGCAACTGAAAAGTTGTGGCACTTATAGTGAGTCGCTGCCTGCAAAGACACAACT", "note": "[CACTT]", "ligation selection enrichment": "0.105 ± 0.047"}
{"variant": "GAGACCGCAACTGAAAAGTTGTGGGAGAAATAGTGAGTCGCTGCCTGCAAAGACACAACT", "note": "[GAGAA]", "ligation selection enrichment": "0.508 ± 0.036"}
{"variant": "GAGACCGCAACTGAAAAGTTGTGGTAGAAATAGTGAGTCGCTGCCTGCAAAGACACAACT", "note": "[TAGAA]", "ligation selection enrichment": "0.484 ± 0.075"}
{"variant": "GAGACCGCAACTGAAAAGTTGTGGAAGAAATAGTGAGTCGCTGCCTGCAAAGACACAACT", "note": "[AAGAA]", "ligation selection enrichment": "0.428 ± 0.044"}
{"variant": "GAGACCGCAACTGAAAAGTTGTGGCAGAAATAGTGAGTCGCTGCCTGCAAAGACACAACT", "note": "[CAGAA]", "ligation selection enrichment": "0.343 ± 0.0039"}
{"variant": "GAGACCGCAACTGAAAAGTTGTGGTAGACATAGTGAGTCGCTGCCTGCAAAGACACAACT", "note": "[TAGAC]", "ligation selection enrichment": "1.03 ± 0.29"}
{"variant": "GAGACCGCAACTGAAAAGTTGTGGGAGACATAGTGAGTCGCTGCCTGCAAAGACACAACT", "note": "[GAGAC]", "ligation selection enrichment": "0.765 ± 0.031"}
